In US20230405070A1, “PLECTRANTHUS AMBOINICUS EXTRACT FOR USE IN INHIBITING IMMUNE RESPONSES” (Oneness Biotech Co., Ltd., priority 2022, published 2023):

System: M1 macrophages
Experiment: Recombinant GCSF / CXCL3 co-administered with M1-polarizing cytokines
Format: cell-based, human
Protocol: For detection of M1 and M2 macrophage markers, cultured cells were suspended then blocked by 20 μL/10^4 of FcR Blocking Reagent (Miltenyi Biotec, Cologne, Germany). Antibodies listed in Table 1 and isotype signal for normalization were listed in Table 3 were used at 5 μL per 10^5 cells.
Cell lysates for immunoblotting were prepared using an M-PER mammalian protein extraction kit containing protease and phosphatase inhibitor cocktail (Thermo-Fisher Scientific). Immunoblotting using the indicated antibodies (listed in Table 1) was performed as described previously (Lu et al., J Immunother Cancer, 2020).
Next, experiments were performed to analyze whether the genes altered by ON101 treatment in diabetic wounds could be produced by ADPCs upon ON101 treatment and focused on candidate genes detected in wound tissues in ON101-treated db/db mice (FIGS. 4E-4F). […] To test whether GCSF and CXCL3 might be involved in the marker switch between M1 and M2 macrophages, recombinant GCSF and CXCL3 proteins, with or without their neutralizing antibodies, were co-administrated with M1-polarizing cytokines. […] Both GCSF- and CXCL3-mediated inductions of M2a/c markers were abolished by the corresponding neutralizing antibodies (FIGS. 8G-8H). In addition, both GCSF and CXCL3 treatments activated Stat3 signaling pathways, whereas GCSF activated Akt phosphorylation, which was again abolished by their corresponding antibodies (FIG. 8I).

[1] = recombinant protein with M1-polarizing cytokines, 48 h

Molecule	Stat3 signaling (immunoblot)	CD163 expression [1]	Akt phosphorylation (immunoblot)	CD206 expression [1]
CXCL3: recombinant CXCL3 protein co-administrated with M1-polarizing cytokines	activated	only induced CD163 expression	–	–
GCSF: recombinant GCSF protein co-administrated with M1-polarizing cytokines (protein, UniProt P09919 31-207, looked up) Granulocyte …: TPLGPASSLPQSFLLKCLEQVRKIQGDGAALQEKLVSECATYKLCHPEELVLLGHSLGIPWAPLSSCPSQALQLAGCLSQLHSGLFLYQGLLQALEGISPELGPTLDTLQLDVADFATTIWQQMEELGMAPALQPTQGAMPAFASAFQRRAGGVLVASHLQSFLEVSYRVLRHLAQP	activated	concentration-dependent increase	activated	concentration-dependent increase
